Assay: yeast display, Sf9 membrane polyspecificity reagent, FACS + sequencing; frameworks hold sequencing errors
Summary of the method: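 Galactose-induced (36–48 hours) yeast carrying a synthetic nanobody display library were exposed to 10% biotinylated, detergent-solubilized Sf9 membrane reagent at 4 °C for 1 hour. FACS followed streptavidin microbead enrichment, using low and high (top ~1%) gates for expression (anti-HA) and reagent binding (streptavidin). Colony PCR, MiSeq 2 × 250 sequencing and CDR-length filtering followed. Labels for polyreactivity reflect the gate of origin.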

Row | Sequence | polyreactivity (PSR sort gate)
1 | QGQLVESGGGIVQAGGSLRLSCSASGLTYGTNAKGLYRQAPRQERELVAAISRSGGTTYYADSVKWRFTISRDNAKNTVDLQMNSLKPEDTAVYYCATRPYSPWRHYFWGQGTQVTVSS | high polyreactivity
2 | QVQLVESGGGLVQAGGSLRLICAASGRTFYRYAMGWYRQAPGKERELVAAISRSGTTYYADSVKGRFTISRDNAKNTVYLQMNSLKPEDTAVYYCAAKPAGRQRGGDYWGQGTQVTVSS | high polyreactivity
3 | QVQLVESGGGLVQAGGSLRLSCAASGSTFPVYAMGWYRQAPGKERELVAAISRAGSTNYADSVKGRFTISRDNAKNSVYLQMNSLKPEDTAVYYCAARGYLWAGEWYVRRDDWGQGTQVTVSS | high polyreactivity
4 | QVQLVESGGGLVQAGGSLRLSCAASGRTFVWYVMGWYRQAPGKERELVAAISLRGGTTYYADSVKGRFTISRDNAKNTVYLQMNSLKPEDTAVYYCAIAGIRHVTSKFKGYHFGYWGQGTQVTVSS | low polyreactivity
5 | QVQLVESGGGLVQAGGSLRLSCAASGSIFYVNAMGWYRQAPGKEREFVADITWSSGGRTYYADSVKGRFTISRDNAKNTVYLQMNSLKPDDTAVYYCAAPRYYYYSYDYWGQGTQVTVSS | high polyreactivity
6 | QVQLVESGGGLVQAGGSLRLSCAASGGMGWYRQAPGKERELVATISSVGSTNYADSVKGRFTISRDNAKNTVYLQMNSLKPEDTAVYYCNDTGVQYFLYAYWGQGTQVTVSS | low polyreactivity
7 | QVQLVESGGGLVQAGGSLRLSCAASGSIFRAYAMGWYRQAPGKEMELVAAISSGVSTNYADSVKGRFTISRDNAKNTVYLQMNSLKPEDTAVYYCNTDKYSESYRSYEYWGQGTQVTVSS | low polyreactivity
8 | QVQLVESGGGLVQAGGSLRLSCAASGSNSPTMLMGGYRKAPGKERELVAAISGGGRTNYADSVKGRFTISRDNAKNTVYLQMNSLKPEETAVYYCAAGGYYQRTRGDWGQGTQVTVSS | high polyreactivity
9 | QVQLVESGGRLVQAGGSLRLSCAASGFTFDSYDMGWYRQEPGKERELVAAITWSGGSTYYADSVKGRFTISRDNAKNTVYLQMNSLKPEDTAVYYCNADTGTYWVPWYHDGYDYWGQGTQVTVSS | low polyreactivity
10 | QVQLVESGGGLVQAGGSLRLSCAASGSIFNRYTMGWYRPAHGKQRELVAAISRGGITYYADSVKGRFTISRDNAMNTVYLQMNSLKPEDSAVYYCAADGFTRWGRYDYWGQGTQVTVSS | high polyreactivity
11 | QVRRVESGGGLVQAGGSLRLSCAASGSTFPWYAMGWYRQAPGTERELVASITSGTTTNYADSVKGRFTISRDNAKNTVYLEMNSLKPEDTAVYYCAASWVYPYDYWGQGTQVTVSS | low polyreactivity
12 | QVQLVESGGGLVQAGGSLRLSCAASGFIFRYYAMGWYRQAPGKERELVAAISWSGGSTNYADSVKGRFTISRDNAKNTVYLQMNSLKPEDTAVYYCATRYRRWSTVVQDDYWGQGTQVTVSS | low polyreactivity
13 | QVQLVESGGGLVQAGGSLRLSCAASGRIFKVNAMVWYRQPPGKERELVAAIRWSGGSTYYADSVKGRFTISRDNAKNTVYLQMNSLKPEDTAVFYCAATWSRRFDYWGQGSQVTVSS | low polyreactivity
14 | QVQLVESGGGLVQAGGSLRLSCAASGYTFQKYAMGWYRQAPGKERELVAAITRSGTRTYYADSVKGRFTISRDNAKNTVYFQMNSLKPEDTAVYYCAAETYYSIYDYWGQGTQVTVSS | high polyreactivity
15 | QVQLVESGGGLVQAGGSLRLSCAASGYIFGRYAMGWYRQAPGKERELVAAISSTGDSTYYADSVKGRFTISRDNAKNTVYLQMNSLKPEDTAVYYCNAVVRRYSYGRYYYWGQGTQVTVSS | high polyreactivity
16 | QVQLVESGGGLVQAGGSLRLSCAASGRIFGRYAMGWSRQAPGKERELVASISKRGGSTYYADSVKGRFTISRDNAKNTVYLQMNSLKPEDTAVYYCAALFLSHIYYYWGQGTQVTVSS | high polyreactivity
17 | QVQLVESGGGLVQAGGSLRLSCAASGSISNRYAMGWYRQAPGKERELVAAISTGGGTTYYADSVKGRFTISRDNAKNTVYLQMNSLKPEDTAVYYCAADDWRYYRELDYWGQGTQVTVSS | low polyreactivity
18 | QVQLVESGGVFVQAGGSLRLSCAASGSIFPYVNAMGWYRQAPGKEREFVASIPGGGGTKYADSVKGRFTISRDNAKNTVYLQMNSLKAEDTAVYYCNATSGNPASTAWMNYWGQGTQVSVSS | low polyreactivity
19 | QVQLVESGGGLVQAGGSLRLSCAASGRIFGRYVMGWYRQAPGKERELVAVISRRSGNTYYADSVKGRFTISRDYAKNTVYLQMNSLKPEDTAVLYCAARYYYSKSDRYDYWGEGTQVTVSS | high polyreactivity
20 | QVQLVESGGGLVQAGGSLRLSCAASARTFWAYAMGWYRQATGKEREWVAAITSSGTRTYYADSVKGRFTISRDNAKNTVYLKMNSLKPEDTAGYYCAAERIWLAHAYPTYVANDYWGQGTQVTVSS | high polyreactivity
21 | QVQLVESCGCLVQAGGSLRLSCAAYGITFGRNTMVWDRQAPGKERELVAAIDSGGNTYAVSVKGRFTISRDNAKNTVYLQMISLKPEDTAVYYCAVDGGEFSSYGYWGQGTQVTVSS | low polyreactivity
22 | QVQLVESVGGLVQAGGSLRLSCAASGYIFATNAMGWYRQAPGKERELVAAITRSGGRTYYADSVKGRFTISRDNAKNTVYLQMNSLKPEDTAVYYCAAARPTNIYYYWGQGTQVTVSS | high polyreactivity

Row | Sequence | polyreactivity (PSR sort gate)
23 | QVQLVESGGGLVQAGGSLRLSCAASGFTFYGYAMGWYRQAPGKERELVAAISSSGGRTYYADSVKGRFTISRDNAKNTVYLQMNSLKPEDTAVYYCAADYTSRDYYYWGQGTHVTVSS | high polyreactivity
24 | QVQLVESGGGLVQAGGSLRLSCAASGIIFGGNVMGWYRQAPGKERELVAAITWSGGTTYYADSVKGRFTISRDNAKNTVFLQMNSLKPEDTAVYYCAADRVYLDYVAGTYDYWGQGTQVTVSS | low polyreactivity
25 | QVQLVESGGGLVQAGGSLRLSCAASGSTFFSYAMGWYRQAPGKERDLVAAITSNGGTTHYADSVKGRFTISRDNAKNTVYLQMNSLKPEDTADYYCAKAQGHVRGSRGLQGGRYDYWGQGTQVTVSS | low polyreactivity
26 | QVQLVESGGGLVQAGGSLRLSCAASGRIFGENAMGWYRQAPGKERELVAAITWSGTSTYYADSVKGRFTISRDNAKNTVYLQMNSLKPEDTAVDYCAASATLFSSRGKRYYWGQGTQVTVSS | low polyreactivity
27 | QVQLVESGGGLVQAGGSLRLSCAASGSIFFRYAMGWYRQAPGKVRELVANISSGGGNTYYADSVKGRFTISRDNAKNTVYLQMNSLKPEDTAVYYCARRLATRGHTYDYWGQGTQVTVSS | low polyreactivity
28 | QVQLVESDGGLVQAGGSHPLSSAASGRIIYRYTMGWYRQAPGKERELVAAIRYRTSSTYYADSVKGRFTISRDNAKNTVYLQMNSLKPEDTAVYYCAAYDGLRPHRMDYWGQGTQVTVSS | low polyreactivity
29 | QVQLVESGGGLVQAVGSLRLSCAASGLIFKKYAMGWYRQAPGKERELVATITSRGGSTYYADSVKGRFTISRDNAKNTVYLQMNSLKPEDTAVYYCAARFGFYTAYTYNYWGQGTQVTVSS | high polyreactivity
30 | QVQLVESGGGLVQAGGSLRLSCAASGFTFARNAMGWYRQAPGKERELVAGITSRGSSTSYADSVKGRFTISRDNAKNTVYLQMNSLKPEDTAVYYCAAVPRYRDRGQYGYWGQGTQVTVSS | high polyreactivity
31 | QVQLVESGGGLVQAGGSLRLSCAASGIIFWYYAMGWYRQAPGKERELVAAISQSGGSTYYADSVKGRFTISRDNAKNTVYLQMNSMKPEDTAVDYCAAKPFYWSLEYDYRGQGTQVTVSS | high polyreactivity
32 | QVQLVESGGGLVQAGGSLRLSCAASGSTFDSNTMGWYRQAPGKERELVAAITVSGGSTHYADSVKGRFTNSRYNAKNTVYLQMNSLKPEDTAVYYCNRRSYGYGAFSGYDYWGQGTQVTVSS | low polyreactivity
33 | QVQLVESGGGLVQAGGSLRLSCAASGRIFDLNAMGWYRQAPGKERELVAAITWSGDSTYYADSVKGRFTISRDNAKNTVYLQMNSLNPEDTAVYYCAAASRTSYSWVDYEFDYWGQGTQVTVSS | low polyreactivity
34 | QVQLVESGGGLVQAGGSLRLSCAASGFIFVHNAMGWYRQAPGKERELVAAITSRGRTYYADSVKGRFTISRDNAKNTVYLQMNSLKPEDTAVYYCNAYWRGEYRYDSWGQGTQVTVSS | high polyreactivity
35 | QVQLVESGGGLVQAGGSRRLSCAASGSIFIPYVMGWYRQAPGKERELVAVITSGGDTYYADSVKGRFTISRDNAKNTVYLQMNSLKPEDTAVYYCNATFWYPPWWYEYDYWGQGTQVTVSS | low polyreactivity
36 | QVQLVESGGGLVQAGGSLRLSCAASGIIFAYAMGWYRQAPGKERELVAAISGRDGSTYYADSVKGRFTISRDNAKNTVYLQMNSLKPEDTAVYYCNAVRGSYSWQMYYWGQGTQVTVSS | low polyreactivity
37 | QVQLVESGGGLVQAGGSLRLSCAASGFTFLDNAMGWYRPAPGKERELVAAISGIGGSTSYADSVKGRFTISRDNAKNTVYLQMNSLKPEDTAVYYCATRWQTVGRDTIFAYDYWGQGTQVTVSS | low polyreactivity
38 | QVQLVESGGGLVQAGGSLRLSCAASGFTFGLYTMGWYRQAPGKERELVAAITSSGARTYYADSVKGRFTISRDNAKNTVNLQMNSLKPEDTAVYYCNAGKRGSTYYYWGQGTQVTVSS | high polyreactivity
39 | QVQHVESGGGLVQAGGSLRLSCAASGIIFGGNAMGWYRQAPGKERELVAGISGSGASTYYADSVKGRFTISRDNAKNTVYLQMNSLKPEDTAVYYCAADGYPGDDYWGQGTQVTVSS | high polyreactivity
40 | QVQLVESGVGLVQAGGSLRLSCAASGFIFYNYAMGWYRQAPGKERELVASITSGGGTNYADSVKGRFTISRDNAKNTVYLQMNSLKPEDTAVYYCAVRGRGRFNGYGYWGQGTQVTVSS | high polyreactivity
41 | QVQLVESGGGLVHAGGSLRLSCAASGIISGWNGMGWYRQAPGKERELVASIDKNGSTYYADSVKGRCTISRDNAKNTVYLQMISLKPEDTAVYYCASDVRYRGNREDYWGQGTQVNVSS | low polyreactivity
42 | QVQLVESGGGLVQAGGSLRLSCAASGRTFYRYAMGWYRHAPGKERELVASITRGTSTNYADSVKGRFTISRDNAKNTVYLQMNSLKPEDTAVYYCNRRIFGGQRMYYWGQGTQVTVSS | high polyreactivity
43 | QVQLVESGGGLVQAGGSLRLSCAASGRIFRHNTMGWYLQAPGKERELVAAIRYSGGRTYYADSVKGRFTLSRDTAKNTFYLQMNSLKPEDTAVYYCAATYFAAVYSSWYWFDYWGQGTQVTVSS | high polyreactivity

Source: the nanobody polyreactivity screen of Harvey et al. (2022)
